Measurements as given in the supplement of paper PMC10567573.
± gives the standard deviation.

Assay: protein stability index of a GFP-peptide fusion (GPS, HEK-293T) (PSI 1-6); higher = more stable
[1] = treatment: DMSO, c terminus: a fixed tail appended
[2] = treatment: MLN4924 1 uM, 8 h, c terminus: a fixed tail appended
[3] = treatment: DMSO, c terminus: native
[4] = treatment: MLN4924 1 uM, 8 h, c terminus: native
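Further: 24-mer peptide tiles fused after GFP, lentivirally expressed, FACS-sorted into six equal bins by GFP/DsRed ratio, decoded by Illumina sequencing, PSI is the read-weighted mean bin number.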

| Sequence | protein stability index [1] | protein stability index [2] | protein stability index [3] | protein stability index [4] |
| --- | --- | --- | --- | --- |
| IPERLSIFCRDTQTVFQKKNLQQT [IQUB] | 2.87 ± 0.19 | 2.98 ± 0.51 | – | – |
| CLGLSYDGLLGDNQIMPKAGLLII [MAGEA3] | 3.12 ± 0.68 | 2.73 ± 0.61 | – | – |
| EQLMYIKEDLIIPHHHSFYDFIVT [FAM50A] | 2.42 ± 0.21 | 2.27 ± 0.21 | – | – |
| GKLVLSSLPKRLCLVCGDVASGYH [ESRRA] | 2.38 ± 0.45 | 1.97 ± 0.33 | – | – |
| IQQGINAVNQEAMNNAQRIEKWVI [ACSBG2] | 2.89 ± 0.44 | 2.94 ± 0.51 | – | – |
| NRVSWWGSTLAMLQRLKEQQFVIA [ZBED1] | 2.41 ± 0.38 | 2.48 ± 1 | – | – |
| RLRQLKVRNDSCVVHEDFREDILS [PKD2L1] | 3.47 ± 0.43 | 3.65 ± 0.43 | – | – |
| RLSNNQRYLFLDGDSHYEIEIVHI [ZFYVE21] | 3.21 ± 0.56 | 2.21 ± 0.53 | – | – |
| AVVRLNKKIYEAKRFTDAGFEHYD [CDC14A] | 2.54 ± 0.38 | 2.52 ± 0.25 | – | – |
| PASGEVEASQLRRLNIKKDDEFFH [TMEM40] | 4.79 ± 0.1 | 4.78 ± 0.25 | – | – |
| APFPPPPAADGARAPRSPGQVTPR [C6orf223] | 5.14 ± 0.54 | 5.25 ± 0.11 | – | – |
| YFLLCDVLPEDRILREELQKQRLR [ZNF277] | 2.37 ± 0.3 | 2.28 ± 0.54 | – | – |
| TSIEEGYERSFIHKIKHKHILAKN [IQUB] | 3.14 ± 0.16 | 3.29 ± 0.55 | – | – |
| LYRSRMNSLEMTPAVRQRVIEEAK [HMOX1] | 4.04 ± 0.21 | 4.06 ± 0.26 | – | – |
| YCESHAKARVKPPEGYDVVAVYPN [PDLIM4] | 3.74 ± 0.38 | 4.08 ± 0.25 | – | – |
| AQHKDRSTQLEMQLEKPKPVKPVT [MNAT1] | 4.71 ± 0.24 | 4.82 ± 0.36 | – | – |
| LLYWGIAEDHLDGCCKRRYLQKIE [KCNG1] | 1.95 ± 0.33 | 2.3 ± 0.12 | – | – |
| YIYYNEKYGGPNHHLPLPDNWKSQ [CPN1] | 2.46 ± 0.75 | 2.35 ± 0.37 | – | – |
| DPVLAKVAGDCLDEKQCKQCANKV [LRRC59] | 4.99 ± 0.42 | 5.07 ± 0.09 | – | – |
| QTSAFARQPRDELERVRVSCTIIF [TMEM175] | 2.46 ± 0.55 | 2.62 ± 0.61 | – | – |
| LPLERDAESFLLKSPIAPCSLDKR [CDC25B] | 4.35 ± 0.18 | 4.35 ± 0.15 | – | – |
| SVPPVAGAPSVGQPGAGFGMPPAG [SNAP91] | 4.38 ± 0.24 | 4.38 ± 0.058 | – | – |
| ILIQHQKAKHFKCHICHKKLYTGP [ZNF207] | 2.44 ± 0.12 | 1.88 ± 0.38 | – | – |

| Sequence | protein stability index [1] | protein stability index [2] | protein stability index [3] | protein stability index [4] |
| --- | --- | --- | --- | --- |
| DTDKWIQKAPMTTVRGLHCMCTVG [KLHL13] | 2.32 ± 0.25 | 2.81 ± 0.35 | – | – |
| IGALTYFAQADALKGTLVSTLKEV [ACSBG2] | 2.21 ± 0.41 | 2.25 ± 0.56 | – | – |
| CELAQDKEAAEAIEAEGATAPLTE [CTNNB1] | 5.49 ± 0.41 | 5.53 ± 0.23 | – | – |
| VRSQTLPRTSEAQARKALFEKWEQ [SMTNL2] | 3.98 ± 0.28 | 4.16 ± 0.47 | – | – |
| SSLEFTELLTLVNRKVSQRRVDFC [CASP6] | 2.37 ± 0.43 | 2.32 ± 0.087 | – | – |
| GLPGSFIKEVQKGGPADLAGLEDE [PDZK1] | 5.59 ± 0.14 | 5.37 ± 0.25 | – | – |
| GRLPRIPQVLSQEFTELLKVMIHP [WEE1] | 2.48 ± 0.53 | 2.47 ± 0.45 | – | – |
| AIFDAGTLGGELGALEALELSPPL [FOXJ1] | 3.26 ± 0.23 | 3.31 ± 0.31 | – | – |
| RRVWSPPRVHKVEMGFGGGGGAN [ZBTB22] | – | – | 4.13 ± 0.3 | 3.92 ± 0.14 |
| KKSSRNIFSIVFVFFVCFVPYHIA [P2RY14] | 3.31 ± 1 | 3.53 ± 0.15 | – | – |
| VHLVIWLLLVAKMSVGHLRLLSHD [JAGN1] | 3.39 ± 0.5 | 3.36 ± 0.63 | – | – |
| RAMKIPFTNDKIINLPVEEFNELL [NFE2L1] | 2.87 ± 0.2 | 3.01 ± 0.67 | – | – |
| SWEKVTGHNSPLYKRQEESGAAAS [CHIT1] | 4.77 ± 0.37 | 4.51 ± 0.32 | – | – |
| IPPPLSSVYAWGGGLGTPLRLPML [NEK8] | 2.32 ± 0.087 | 2.32 ± 0.034 | – | – |
| VYFKRFYARYSLKSIDPVLMAPTC [CCNC] | 3.11 ± 1.3 | 2.13 ± 0.32 | – | – |
| CDPGMTAFEPEALGNLVEGLDFHR [CAMK2A] | 4.17 ± 0.096 | 4.2 ± 0.19 | – | – |
| RGFSGGILAFLVLEAVAGALVVAL [TSPAN10] | 2.78 ± 0.9 | 2.43 ± 0.41 | – | – |
| EIELQAQHNLRYSLENTLTESEAR [KRT33B] | 4.7 ± 0.2 | 4.48 ± 0.18 | – | – |
| PTPSTDAEYPANGSGADRIYDLNI [NCK2] | 4.69 ± 0.21 | 4.71 ± 0.19 | – | – |
| AVLGLLLVLAAVVAWCYYSVSLRK [MYORG] | 2.69 ± 0.52 | 2.77 ± 0.78 | – | – |
| NVKMIVLICVIVFIIILFIVLFAT [VAMP8] | 2.27 ± 0.3 | 2.37 ± 0.27 | – | – |
| ECYDPRTQQWTAICPLKERRFGAV [GAN] | 2.69 ± 0.18 | 2.62 ± 0.3 | – | – |
| GARARGVAMLGVFLVSAVAHEYIF [SOAT2] | – | 3.591 ± 0.02 | – | – |

| Sequence | protein stability index [1] | protein stability index [2] | protein stability index [3] | protein stability index [4] |
| --- | --- | --- | --- | --- |
| VENRVVEEAKGLLDKVKDGGYRPA [ZBED1] | 4.82 ± 0.13 | 4.94 ± 0.094 | – | – |
| RREAVQRGRMPPTQPTHGQFALTN [NR2F2] | 3.9 ± 0.29 | 3.99 ± 0.25 | – | – |
| DHTSEAVRNLFGLDPSSGAIHVLG [PCDHGC5] | 3.16 ± 0.24 | 3.09 ± 0.19 | – | – |
| VVEVENFLFVLGGEDQWNPNGKHS [KLHL14] | 2.39 ± 0.31 | 2.37 ± 0.19 | – | – |
| MKQRIAEENIMKSNIDKKFSAHYD [FAM50A] | 3.85 ± 0.2 | 3.97 ± 0.14 | – | – |
| VQRLQAYTATEQEMQQQMSLGELC [TRIM14] | 4 ± 0.077 | 3.9 ± 0.21 | – | – |
| IKSVLWQTLQALNFCHIHNCIHRD [CDKL4] | 3.15 ± 0.99 | 2.99 ± 0.72 | – | – |
| VLSRLQDAAVVRPGFLSTAEEETL [ALKBH7] | 4.21 ± 0.17 | 4.12 ± 0.55 | – | – |
| SRRREQSSSRNSHLVQHQHPNSRK [ZNF8] | 5.14 ± 0.46 | 5.41 ± 0.075 | – | – |
| HTLPVNRETLKRKVSGNRCASPVT [ESR2] | 4.07 ± 0.14 | 4.24 ± 0.15 | – | – |
| KKQTKVEFPEARIFEETLNILIYE [KCTD13] | 2.16 ± 0.2 | 2.44 ± 0.5 | – | – |
| QGTTVPAHRAILVARCEVMAAMFN [RHOBTB3] | 2.1 ± 0.18 | 2.17 ± 0.097 | – | – |
| CGWPRGKDAPCYESDTDIYETVAA [DRICH1] | 3.18 ± 0.23 | 3.31 ± 0.27 | – | – |
| MEMTRPTPPHLTSAMAENILAAAC [NOL4L] | 3.38 ± 0.3 | 3.18 ± 0.34 | – | – |
| AWGFPENATAPRSPSHSPEHRRTA [ELOA2] | 5 ± 0.15 | 4.87 ± 0.16 | – | – |
| SYVHILSAILQFPSTLGRCKAFST [OR10K2] | 3.38 ± 0.61 | 3.01 ± 0.63 | – | – |
| FQLPERGSRLCLYEDGTELTEDYF [DFFB] | 3.71 ± 0.44 | 3.7 ± 0.47 | – | – |
| LTGLNYEAPKYHIPYWVAYYLALL [NSDHL] | 2.71 ± 0.59 | 2.87 ± 0.48 | – | – |
| METHKELKPLLSPSSETTVTVELP [LYSMD4] | 4.77 ± 0.16 | 5.06 ± 0.083 | – | – |
| VRNDSCVVHEDFREDILSCYDVYS [PKD2L1] | 2.99 ± 0.34 | 3.16 ± 0.28 | – | – |
| LDNLLAFVCDIRPEIHENYRING [ATP6V1G1] | – | – | 2.27 ± 0.49 | 2.47 ± 0.21 |
| DDGKLGATGPMGMRGFKGDRGPKG [SCARA5] | 5.02 ± 0.36 | 5.07 ± 0.13 | – | – |
| MWYPEIKHFCPRTPVILVGCQLDL [RHOBTB1] | 2.91 ± 0.57 | 2.6 ± 0.65 | – | – |

| Sequence | protein stability index [1] | protein stability index [2] | protein stability index [3] | protein stability index [4] |
| --- | --- | --- | --- | --- |
| VAQLFNCMVGLLLIALLTWGYIRY [ATL3] | 3.11 ± 0.58 | 2.77 ± 0.42 | – | – |
| LVSPERAQPPDYTFPSGSGAHFPQ [PI4K2A] | 3.96 ± 0.3 | 4.13 ± 0.25 | – | – |
| RTQEEKLEHVRALIKKYSDHLENV [TRIM55] | 3.24 ± 0.31 | 3.56 ± 0.27 | – | – |
| RENILVSLGAVGEGFHNYHHSFPY [SCD] | 2.22 ± 0.13 | 2.11 ± 0.14 | – | – |
| YYTFHFLYFKDKIFNVAIPRFHMA [FBXO3] | 3.06 ± 0.48 | 2.81 ± 0.2 | – | – |
| IVLNKINQILMEKYLKLQDTCRTQ [INTS3] | 3.59 ± 0.83 | 3.24 ± 0.61 | – | – |
| TSGKLLLEADELCDDGGDGRGAVV [ZBTB22] | 5.36 ± 0.29 | 5.31 ± 0.1 | – | – |
| LYHRADVEKVLRRWVDEEWPKRER [EDARADD] | 2.87 ± 0.31 | 2.94 ± 0.45 | – | – |
| VLSNMEKLFCIPVHGIRSVGTAAV [IMPA1] | 2.09 ± 0.47 | 2.12 ± 0.059 | – | – |
| PALLFPATRGVPAKRLLDADDAAA [TRIB1] | 4.74 ± 0.23 | 4.67 ± 0.27 | – | – |
| GGCYFGPDVTQQLLQKYNMQFLIR [PPEF2] | 1.92 ± 0.29 | 2.2 ± 0.37 | – | – |
| EIANEDRKHALERFEQEAVAVDSN [CCDC89] | 5.01 ± 0.42 | 5.31 ± 0.16 | – | – |
| TPSQEHLKHQTVYRLLKCAPRGKN [FEM1A] | 3.61 ± 0.15 | 3.62 ± 0.12 | – | – |
| CLESTKLLADLKKCGDLECEALIN [MIA2] | 3 ± 0.32 | 3.25 ± 0.14 | – | – |
| MYDEKAHEWKSLAPMDAPRYQHGI [KLHL13] | 3.15 ± 0.21 | 3.4 ± 0.17 | – | – |
| QFGIKDVFDNAIRAALISRRHLQF [RHOBTB1] | 2.62 ± 0.38 | 2.59 ± 0.46 | – | – |
| NKNEVFYQCPDQMARNPAAIDMFI [FBXO3] | 2.42 ± 0.17 | 2.65 ± 0.48 | – | – |
| LKFLEENKIKVMHKQLLLFHNAVS [ARFIP2] | 2.41 ± 0.44 | 2.17 ± 0.26 | – | – |
| DDWEDDYDYPEEEQLSGAGYRVSA [EID1] | 4.9 ± 0.29 | 5.04 ± 0.21 | – | – |
| CGDVHGQFHDLMELFRIGGKSPDT [PPP2CA] | 2.69 ± 0.34 | 2.84 ± 0.15 | – | – |
